“And” between values parts separate entries of the source, which are not always exact repeats. Equal values may be shown once.
What was measured:
GXA281 = test: Gastric cancer PDX mouse model GXA281; assay type: in vivo; conditions: FIG. 4E; Protein #21 40 mg/kg every three days for 6 times i.v.; Lapatinib 100 mg/kg/day for 21 days
Description: In a similar experiment, Protein #21 was further tested in the gastric cancer PDX mouse model GXA281, well known to the person skilled in the art, in comparison to the standard of care Lapatinib (FIG. 4E). Briefly, tumor implantation and tumor growth monitoring was done as described above. Lapatinib was dosed at 100 mg/kg/day for 21 days daily […]. and Protein #21 at 40 mg/kg every three days for 6 times i.v.

[1] = biological target: extracellular domains of HER3 (Homo sapiens, UniProt P21860); test: Surface plasmon resonance interaction with HER3; assay type: binding
[2] = system: SKBR-3, SKOV-3, NCI-N87, ZR-75-30, HCC1419, or MDA-MB175; test: Proliferation inhibition on a variety of cancer cell-lines; assay type: cell-based
[3] = Pharmacokinetic analysis in cynomolgus monkey; assay type: in vivo
Description: The measurements shown in this example are the result of a half-life engineering effort as described in Example 11. Protein #21-His, Protein #23-His, and Protein #24-His were expressed and purified as described in Example 1. The pharmacokinetic properties of the proteins were assessed in cynomolgus monkey. Proteins were administered via intravenous infusion for 30 min at a target dose level of between 1 mg/kg to cynomolgus monkeys. Blood samples were collected pre-dose and again at selected time points, for example 5 min, 10 min, 0.5 hours, 1 hour, 2 hours, 4 hours, 8 hours, 12 hours, 24 hours, 48 hours, 72 hours, 96 hours, 120 hours, 144 hours, 168 hours, 192 hours, 216 hours, and 240 hours post-end of infusion (i.e. post-injection). The blood samples were allowed to stand at room temperature and were centrifuged to generate serum, followed by storage at −80° C. pending analyses. Pharmacokinetic parameters were determined using procedures well known to the person skilled in the art. Serum concentrations of proteins were determined by sandwich ELISA using a rabbit monoclonal anti-designed ankyrin repeat domain antibody as capture reagent and murine monoclonal anti-designed ankyrin repeat domain antibody as detection reagent, and using a standard curve. Pharmacokinetic parameters were determined using standard software such as Phoenix WinNonLin (Certara, Princeton, USA) or Graph Pad Prism (GraphPad Software, La Jolla, USA) and standard analyses such as non-compartmental analyses. […] Target mediated clearance is well-known to the person skilled in the art and is known from e.g. antibodies targeting HER2.
Similarly, Protein #21-His was expressed and purified as described in Example 1. The pharmacokinetic properties of the proteins were assessed in cynomolgus monkey as described above at 1 mg/kg, 5 mg/kg and 10 mg/kg.
Similar results are observed when testing Protein #21 (expressed and purified as described in Example 1). The pharmacokinetic properties of the proteins are assessed in cynomolgus monkey as described above at 1 mg/kg, 10 mg/kg and 100 mg/kg. Pharmacokinetic parameters are evaluated as described above.
For the studies in this example Protein #21-His, Protein #24-His, Protein #28-His, Protein #29-His, and Protein #30-His were prepared according to Example 1. Protein #28-His was additionally PEGylated using a 40 kDa PEG moiety (NOF Sunbright GL2-400MA) by maleimid coupling of the PEG-moiety onto the free C-terminal cysteine of Protein #28-His, followed by purification to homogeneity using standard purification methods, procedures well known to the person skilled in the art. Pharmacokinetic analyses in mouse or cynomolgus monkey were performed as described in Examples 8 and 9.

B1: Protein #21: SEQ ID NO: 21; HER2 binding domains (SEQ ID NOs: 16, 17) flanked by two serum albumin binding domains (SEQ ID NO: 14), SEQ ID NO: 9 linkers (protein)
chain: GSDLGKKLLEAARAGQDDEVRELLKAGADVNAKDYFSHTPLHLAARNGHLKIVEVLLKAGADVNAKDFAGKTPLHLAANEGHLEIVEVLLKAGADVNAQDIFGKTPADIAADAGHEDIAEVLQKAAGSPTPTPTTPTPTPTTPTPTPTGSDLGIKLLFAAAKGQDDEVRELLKAGADVNAKDFQGVTPLHIAAQSGHLEIVEVLLKAGADVNAKDVTGDTPLHLAAQHGHLEIVEVLLKAGADVNAQDERGWTPADLAADWGHEDIAEVLQKAAGSPTPTPTTPTPTPTTPTPTPTGSDLGKKLLEAARAGQDDEVRELLKAGADVNAKDEYGLTPLYLATAHGHLEIVEVLLKAGADVNAVDAIGFTPLHLAAFIGHLEIAEVLLKAGADVNAQDKFGKTPADIAAGAGNEDIAEVLQKAAGSPTPTPTTPTPTPTTPTPTPTGSDLGKKLLEAARAGQDDEVRELLKAGADVNAKDYFSHTPLHLAARNGHLKIVEVLLKAGADVNAKDFAGKTPLHLAANEGHLEIVEVLLKAGADVNAQDIFGKTPADIAADAGHEDIAEVLQKAA
modifications: Protein comprising four designed ankyrin repeat domains
inhibition of tumor growth (GXA281): strong inhibition of tumor growth compared to Lapatinib | interaction with extracellular domains of HER3 [1]: does not interact | proliferation inhibition on cancer cell-lines [2]: strong proliferation inhibition | dose dependence of the terminal half-life ([3]; 1 mg/kg, 10 mg/kg and 100 mg/kg): dose dependent increase | pharmacokinetic properties compared to PEGylated Protein #28 ([3]; 5 mg/kg doses): markedly improved pharmacokinetic properties | terminal half-life ([3]; 100 mg/kg): 109.5 h and 130.6 h

— patent US20210130420A1, “RECOMBINANT BINDING PROTEINS TARGETING HER2 AND SERUM ALBUMIN, AND THEIR USES” (Molecular Partners AG, priority 2016, published 2021)
